Test results from paper PMC12494543, “Identification of ALKBH6 as a nucleotide demethylase with a distinct substrate preference” (The Journal of Biological Chemistry, 2025).

Experiments:
[1] = substrate: C[n+]1cnc2c(ncn2[C@@H]2O[C@H](COP(=O)(O)O)[C@@H](O)[C@H]2O)c1N; test: FDH-coupled formaldehyde release demethylation assay; type: biochemical, human; settings: other: substrate of ALKBH6, Michaelis-Menten; 37.0 °C
Description: (§1) NMPs including 1meAMP (Jena Bioscience, NU-1029-1,) 7meGMP (Jena Bioscience, NU-1135S), 6me-AMP (Sigma, M2780) were purchased. N-methylated deoxy-NMPs were prepared by methylating chemically synthesized 30-mer oligonucleotide containing either dA, dG, dC, or dT by MMS (5%, v/v) (0.59 M) MMS (Sigma, 129925) and purified as described before ([17]). The oligonucleotides were digested with nuclease P1 (NEB) at 37 °C for 4 h to produce deoxy-NMPs. After heat inactivating the nuclease, dNMPs were purified by HPLC and used for the demethylation reaction. N-methylated NMPs were purified similarly, using RNA as the starting material. For the demethylation reaction, ALKBH6 (1 μM) and me-dNMPs (1 mM) were mixed in the dioxygenase reaction buffer and incubated at 37 °C for 30 min. Formaldehyde release was detected by FDH-coupled DNA repair assay as described before ([32], [33]). Briefly, 1 mM NAD+ and 0.01 U FDH were added to the dioxygenase reaction buffer containing methylated nucleotide and ALKBH6. NADH generated was detected by the characteristic absorption peak (340 nm) using a 96-well multimode reader (Synergy, Biotek Instrument). Formaldehyde production was quantified from the standard curve and the initial velocities were determined using various substrate concentrations. The results were plotted and analyzed using GraphPad Prism.

[2] = substrate: C[n+]1cn([C@@H]2O[C@H](COP(=O)(O)O)[C@@H](O)[C@H]2O)c2nc(N)[nH]c(=O)c21; test: as above; type: biochemical, human; settings: other: substrate of ALKBH6, Michaelis-Menten; 37.0 °C
Description: as §1

B1: ALKBH6 (Homo sapiens) (protein)
chain: MEEQDARVPALEPFRVEQAPPVIYYVPDFISKEEEEYLLRQVFNAPKPKWTQLSGRKLQNWGGLPHPRGMVPERLPPWLQRYVDKVSNLSLFGGLPANHVLVNQYLPGEGIMPHEDGPLYYPTVSTISLGSHTVLDFYEPRRPEDDDPTEQPRPPPRPTTSLLLEPRSLLVLRGPAYTRLLHGIAAARVDALDAASSPPNAAACPSARPGACLVRGTRVSLTIRRVPRVLRAGLLLGK
notes: His-tag; made in house
Km [1]: 0.96 µM
kcat [1]: 0.18 s⁻¹
Km [2]: 1.03 µM
kcat [2]: 0.167 s⁻¹
